This note sets out measurements from IntAct's records for PubMed 20739938.

B1: Regulator of chromosome condensation (Homo sapiens), P18754 (parent)
chain: MSPKRIAKRRSPPADAIPKSKKVKVSHRSHSTEPGLVLTLGQGDVGQLGLGENVMERKKPALVSIPEDVVQAEAGGMHTVCLSKSGQVYSFGCNDEGALGRDTSVEGSEMVPGKVELQEKVVQVSAGDSHTAALTDDGRVFLWGSFRDNNGVIGLLEPMKKSMVPVQVQLDVPVVKVASGNDHLVMLTADGDLYTLGCGEQGQLGRVPELFANRGGRQGLERLLVPKCVMLKSRGSRGHVRFQDAFCGAYFTFAISHEGHVYGFGLSNYHQLGTPGTESCFIPQNLTSFKNSTKSWVGFSGGQHHTVCMDSEGKAYSLGRAEYGRLGLGEGAEEKSIPTLISRLPAVSSVACGASVGYAVTKDGRVFAWGMGTNYQLGTGQDEDAWSPVEMMGKQLENRVVLSVSSGGQHTVLLVKDKEQS

Variants of B1 are the subject of this test. The conditions noted are these: with h2b11, P02281.
For MSPKRIAKRRSPPADAIPKSKKVKVSHRSHSTEPGLVLTLGQGDVGQLGLGENVMERKKPALVSIPEDVVQAEAGGMHTVCLSKSGQVYSFGCNDEGALGRDTSVEGSEMVPGKVELQEKVVQVSAGDSHTAALTDDGRVFLWGSFRDNNGVIGLLEPMKKSMVPVQVQLDVPVVKVASGNDHLVMLTADGDLYTLGCGEQGQLGRVPELFANRGGRQGLERLLVPKCVMLASAGSAGHVRFQDAFCGAYFTFAISHEGHVYGFGLSNYHQLGTPGTESCFIPQNLTSFKNSTKSWVGFSGGQHHTVCMDSEGKAYSLGRAEYGRLGLGEGAEEKSIPTLISRLPAVSSVACGASVGYAVTKDGRVFAWGMGTNYQLGTGQDEDAWSPVEMMGKQLENRVVLSVSSGGQHTVLLVKDKEQS [K232A;R234A;R237A], the “effect of a mutation on the interaction” value was “disrupting interaction”.

In the case of MSPKRIAKRRSPPADAIPKSKKVKVSHRSHSTEPGLVLTLGQGDVGQLGLGENVMERKKPALVSIPEDVVQAEAGGMHTVCLSKSGQVYSFGCNDEGALGRDTSVEGSEMVPGKVELQEKVVQVSAGDSHTAALTDDGRVFLWGSFRDNNGVIGLLEPMKKSMVPVQVQLDVPVVKVASGNDHLVMLTADGDLYTLGCGEQGQLGRVPELFANRGGRQGLERLLVPKCVMLASRGSRGHVRFQDAFCGAYFTFAISHEGHVYGFGLSNYHQLGTPGTESCFIPQNLTSFKNSTKSWVGFSGGQHHTVCMDSEGKAYSLGRAEYGRLGLGEGAEEKSIPTLISRLPAVSSVACGASVGYAVTKDGRVFAWGMGTNYQLGTGQDEDAWSPVEMMGKQLENRVVLSVSSGGQHTVLLVKDKEQS [K232A], the “effect of a mutation on the interaction” value is “disrupting interaction”.

Consider MSPKRIAKRRSPPADAIPKSKKVKVSHRSHSTEPGLVLTLGQGDVGQLGLGENVMERKKPALVSIPEDVVQAEAGGMHTVCLSKSGQVYSFGCNDEGALGRDTSVEGSEMVPGKVELQEKVVQVSAGDSHTAALTDDGRVFLWGSFRDNNGVIGLLEPMKKSMVPVQVQLDVPVVKVASGNDHLVMLTADGDLYTLGCGEQGQLGRVPELFANRGGRQGLERLLVPKCVMLKSRGSAGHVRFQDAFCGAYFTFAISHEGHVYGFGLSNYHQLGTPGTESCFIPQNLTSFKNSTKSWVGFSGGQHHTVCMDSEGKAYSLGRAEYGRLGLGEGAEEKSIPTLISRLPAVSSVACGASVGYAVTKDGRVFAWGMGTNYQLGTGQDEDAWSPVEMMGKQLENRVVLSVSSGGQHTVLLVKDKEQS [R237A], for which the “effect of a mutation on the interaction” value is “disrupting interaction”.

As for MSPKRIAKRRSPPADAIPKSKKVKVSHRSHSTEPGLVLTLGQGDVGQLGLGENVMERKKPALVSIPEDVVQAEAGGMHTVCLSKSGQVYSFGCNDEGALGRDTSVEGSEMVPGKVELQEKVVQVSAGDSHTAALTDDGRVFLWGSFRDNNGVIGLLEPMKKSMVPVQVQLDVPVVKVASGNDHLVMLTADGDLYTLGCGEQGQLGRVPELFANRGGRQGLERLLVPKCVMLKSAGSRGHVRFQDAFCGAYFTFAISHEGHVYGFGLSNYHQLGTPGTESCFIPQNLTSFKNSTKSWVGFSGGQHHTVCMDSEGKAYSLGRAEYGRLGLGEGAEEKSIPTLISRLPAVSSVACGASVGYAVTKDGRVFAWGMGTNYQLGTGQDEDAWSPVEMMGKQLENRVVLSVSSGGQHTVLLVKDKEQS [R234A], the “effect of a mutation on the interaction” value is recorded as “disrupting interaction”.
